Experimental findings from paper PMC6511404 (Biochemistry, 2019) are described below.

This data set concerns the molecule itself. The data set can be described thus: SEC.

B1: recombinant N-terminal cleavable His-tagged E. coli enolase (enzyme)
chain: MSKIVKIIGREIIDSRGNPTVEAEVHLEGGFVGMAAAPSGASTGSREALELRDGDKSRFLGKGVTKAVAAVNGPIAQALIGKDAKDQAGIDKIMIDLDGTENKSKFGANAILAVSLANAKAAAAAKGMPLYEHIAELNGTPGKYSMPVPMMNIINGGEHADNNVDIQEFMIQPVGAKTVKEAIRMGSEVFHHLAKVLKAKGMNTAVGDEGGYAPNLGSNAEALAVIAEAVKAAGYELGKDITLAMDCAASEFYKDGKYVLAGEGNKAFTSEEFTHFLEELTKQYPIVSIEDGLDESDWDGFAYQTKVLGDKIQLVGDDLFVTNTKILKEGIEKGIANSILIKFNQIGSLTETLAAIKMAKDAGYTAVISHRSGETEDATIADLAVGTAAGQIKTGSMSRSDRVAKYNQLIRIEEALGEKAPYNGRKEIKGQA
For the protein B1, the “stoichiometry N” value was found to be 2.

One may read the stoichiometry N as a count of units in the complex or per binding partner.
